Test results taken from article PMC8204860.

Biological target: TRAPPIII complex, P46944;P38334;Q03337;P36149;Q03784;Q03630;Q99394
Test: in vivo anchor-away assay (colocalization of Trs85-mNeonGreen with mitochondrially anchored Rab, fluorescence microscopy)
Conditions: parent: est. 0.55; read off a plot

Substance	other: Mander's Overlap Coefficient
chimeric construct containing the NBD of Rab11/Ypt31 and the HVD of Rab1/Ypt1, mitochondrially anchored D187A; K188A; N190A	0.68
chimeric construct containing the NBD of Rab11/Ypt31 and the HVD of Rab1/Ypt1, mitochondrially anchored K184A; K185A; E186A	0.58
chimeric construct containing the NBD of Rab11/Ypt31 and the HVD of Rab1/Ypt1, mitochondrially anchored K194A; Q196A; S197A	0.28
chimeric construct containing the NBD of Rab11/Ypt31 and the HVD of Rab1/Ypt1, mitochondrially anchored L198A; T199A; N200A; T201A	0.21
chimeric construct containing the NBD of Rab11/Ypt31 and the HVD of Rab1/Ypt1, mitochondrially anchored T181A; T182A; Q183A	0.54
chimeric construct containing the NBD of Rab11/Ypt31 and the HVD of Rab1/Ypt1, mitochondrially anchored V191A; N192A; L193A	0.3
